Target: Env-K, stabilized HIV Env trimer of BG505 NFL2P gp140 with a C-terminal Peptide K (HIV-1 (BG505))
Assay: SEC; Sephacryl S-300 after lectin affinity; peaks of aggregates, trimers and monomers; pooled trimer fractions also run on BN-PAGE

Env-K, stabilized HIV Env trimer of BG505 NFL2P gp140 with a C-terminal Peptide K
stoichiometry N: 3
